Experimental data as given in FireProtDB (doi:10.1021/bi100877y).
Values joined by “and” are separate entries in the source; they are usually repeats but may differ in a detail not shown here. Equal entries are not always repeated.

B1: Outer membrane porin C, P06996 (parent)
chain: MKVKVLSLLVPALLVAGAANAAEVYNKDGNKLDLYGKVDGLHYFSDNKDVDGDQTYMRLGFKGETQVTDQLTGYGQWEYQIQGNSAENENNSWTRVAFAGLKFQDVGSFDYGRNYGVVYDVTSWTDVLPEFGGDTYGSDNFMQQRGNGFATYRNTDFFGLVDGLNFAVQYQGKNGNPSGEGFTSGVTNNGRDALRQNGDGVGGSITYDYEGFGIGGAISSSKRTDAQNTAAYIGNGDRAETYTGGLKYDANNIYLAAQYTQTYNATRVGSLGWANKAQNFEAVAQYQFDFGLRPSLAYLQSKGKNLGRGYDDEDILKYVDVGATYYFNKNMSTYVDYKINLLDDNQFTRDAGINTDNIVALGLVYQF

Variants of: B1
Conditions: Escherichia coli (strain K12), pH 7, Thermal, phosphate 50 mM, structure 2J1N, whole UniProt chain shown

Row | Variant | change of melting temperature, mutant - wild type (higher = more stable) (CD) | Tm (DSC) [°C] | change of melting temperature, mutant - wild type (higher = more stable) (DSC) [°C] | unfolding enthalpy (calorimetric) (DSC) [kcal/mol] | Tm (CD) [°C]
1 | MKVKVLSLLVPALLVAGAANAAEVYNKDGNKLDLYGKVDGLHYFSDNKDVDGDQTYMHLGFKGETQVTDQLTGYGQWEYQIQGNSAENENNSWTRVAFAGLKFQDVGSFDYGRNYGVVYDVTSWTDVLPEFGGDTYGSDNFMQQRGNGFATYRNTDFFGLVDGLNFAVQYQGKNGNPSGEGFTSGVTNNGRDALRQNGDGVGGSITYDYEGFGIGGAISSSKRTDAQNTAAYIGNGDRAETYTGGLKYDANNIYLAAQYTQTYNATRVGSLGWANKAQNFEAVAQYQFDFGLRPSLAYLQSKGKNLGRGYDDEDILKYVDVGATYYFNKNMSTYVDYKINLLDDNQFTRDAGINTDNIVALGLVYQF [R58H] | -1.5 °C and -1.1 °C and -2 °C | 87.3 | 0.31 | 359 | 
2 | MKVKVLSLLVPALLVAGAANAAEVYNKDGNKLDLYGKVDGLHYFSDNKDVDGDQTYMRLGFKGETQVTDQLTGYGQWEYQIQGNSAENENNSWTCVAFAGLKFQDVGSFDYGRNYGVVYDVTSWTDVLPEFGGDTYGSDNFMQQRGNGFATYRNTDFFGLVDGLNFAVQYQGKNGNPSGEGFTSGVTNNGRDALRQNGDGVGGSITYDYEGFGIGGAISSSKRTDAQNTAAYIGNGDRAETYTGGLKYDANNIYLAAQYTQTYNATRVGSLGWANKAQNFEAVAQYQFDFGLRPSLAYLQSKGKNLGRGYDDEDILKYVDVGATYYFNKNMSTYVDYKINLLDDNQFTRDAGINTDNIVALGLVYQF [R95C] | -1.5 °C | 84.6 | -2.35 | 297 | 68.4
3 | MKVKVLSLLVPALLVAGAANAAEVYNKDGNKLDLYGKVDGLHYFSDNKDVDGDQTYMRLGFKGETQVTDQLTGYGQWEYQIQGNSAENENNSWTGVAFAGLKFQDVGSFDYGRNYGVVYDVTSWTDVLPEFGGDTYGSDNFMQQRGNGFATYRNTDFFGLVDGLNFAVQYQGKNGNPSGEGFTSGVTNNGRDALRQNGDGVGGSITYDYEGFGIGGAISSSKRTDAQNTAAYIGNGDRAETYTGGLKYDANNIYLAAQYTQTYNATRVGSLGWANKAQNFEAVAQYQFDFGLRPSLAYLQSKGKNLGRGYDDEDILKYVDVGATYYFNKNMSTYVDYKINLLDDNQFTRDAGINTDNIVALGLVYQF [R95G] | -1.8 °C | 80.8 | -6.19 | 326 | 68.1
4 | MKVKVLSLLVPALLVAGAANAAEVYNKDGNKLDLYGKVDGLHYFSDNKDVDGDQTYMRLGFKGETQVTDQLTGYGQWEYQIQGNSAENENNSWTSVAFAGLKFQDVGSFDYGRNYGVVYDVTSWTDVLPEFGGDTYGSDNFMQQRGNGFATYRNTDFFGLVDGLNFAVQYQGKNGNPSGEGFTSGVTNNGRDALRQNGDGVGGSITYDYEGFGIGGAISSSKRTDAQNTAAYIGNGDRAETYTGGLKYDANNIYLAAQYTQTYNATRVGSLGWANKAQNFEAVAQYQFDFGLRPSLAYLQSKGKNLGRGYDDEDILKYVDVGATYYFNKNMSTYVDYKINLLDDNQFTRDAGINTDNIVALGLVYQF [R95S] | -1.8 °C and -6.8 °C | 81.7 | -5.26 | 299 | 
